Two substances from patent publication US20110212528A1 can be followed below.

This assay addresses GAL4/CfEcR-DEF (Choristoneura fumiferana). The assay can be described thus: cell-based or functional assay.

“VP16/HsRXRβ-EF substitution mutant A495S (receptor)” displayed a fold induction (maximum, reporter gene transactivation, NIH3T3 cells, GS-E) of 30 fold.
Take “VP16/HsRXRβ-EF substitution mutant A528S (receptor)”: the fold induction (maximum, reporter gene transactivation, NIH3T3 cells, GS-E) is 21 fold.
